Laboratory results: the supplement of paper PMC10899765

Assays:
Settings in all cases: 20 nM; 72 h
MCF10A [1] = test: percent viability (nuclei count relative to siNT); higher = more viable cells
Protocol: (§1)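 After 72 h, cells were fixed and stained with Hoechst and anti-fibrillarin, and nucleoli per nucleus were counted with CellProfiler. Values are plate-adjusted percent effect for the one-nucleolus and 5+ nucleoli phenotypes, normalised to siNT (0%) and to the positive controls siNOL11 or siKIF11 (100%), as the mean of biological triplicates. Percent viability is the nuclei count relative to siNT.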

MCF10A [2] = test: 5+ nucleoli phenotype percent effect (relative to siNT 0% and siKIF11 100%); higher = more cells with five or more nucleoli
Protocol: as §1

MCF10A [3] = test: one-nucleolus phenotype percent effect (relative to siNT 0% and siNOL11 100%); higher = more cells with one nucleolus (ribosome biogenesis inhibition)
Protocol: as §1

Sequence | percent viability (MCF10A [1]) [%] | 5+ nucleoli phenotype percent effect (MCF10A [2]) [%] | one-nucleolus phenotype percent effect (MCF10A [3]) [%]
CAGUGAUCGUCUCUGCUGGC [hsa-miR-8079] | 41.6 | -35 | 6.32
CAGGGCAGAGGGCACAGGAAUCUGA [hsa-miR-6735-5p] | 31.9 | -26.5 | 11.3
AUAUUACCAUUAGCUCAUCUUU [hsa-miR-556-3p] | 46.5 | -10.1 | -7.76
AGGAGGGAAGGGGCUGAGAACAGGA [hsa-miR-6797-5p] | 80.7 | 33.9 | -10.1
UAGGACUAGAUGUUGGAAUUA [hsa-miR-4759] | 33.2 | 10.4 | -7.56
CGUGGAUUGUCUGGAUGCAU [hsa-miR-8056] | 41.8 | -25.1 | 12.9
CCCCUGGGCCGGCCUUGG [hsa-miR-4292] | 26.6 | 31.4 | 4.18
GAGGGUUGGGUGGAGGCUCUCC [hsa-miR-296-3p] | 57.1 | 9.3 | 20.8
UAAGUGCUUCCAUGUUUUAGUAG [hsa-miR-302b-3p] | 74.9 | 33.7 | -12.2
CAGUGGUUUUACCCUAUGGUAG [hsa-miR-140-5p] | 61.4 | -31.4 | 20.1
GCCCUCCGCCCGUGCACCCCG [hsa-miR-1470] | 113 | 45.2 | -19.6
AGGGAAAAAAAAAAGGAUUUGUC [hsa-miR-4668-5p] | 65 | 61.6 | -20.9
UGCAACUUACCUGAGUCAUUGA [hsa-miR-891b] | 41.4 | -7.44 | 1.72
GACACAUGACCAUAAAUGCUAA [hsa-miR-4643] | 109 | 36.8 | -11.7
AUCGGGAAUGUCGUGUCCGCCC [hsa-miR-425-3p] | 109 | -1.09 | -1.79
CAAAUAAUACCACAGUGGGUGU [hsa-miR-5692a] | 105 | 46.5 | -17.8
UUGUCUCUUGUUCCUCACACAG [hsa-miR-6818-3p] | 57.7 | 16.4 | -11.1
GGCUGGAGCGAGUGCAGUGGUG [hsa-miR-3135b] | 43.2 | -9.26 | 9.78
UGCGGGGACAGGCCAGGGCAUC [hsa-miR-4749-5p] | 21.9 | -24.9 | 50.5
GUGAGUGGGAGCCGGUGGGGCUG [hsa-miR-4758-5p] | 107 | 48.5 | -17.7
UAAGUGCUUCCAUGUUUGAGUGU [hsa-miR-302d-3p] | 68 | 63.5 | -16.6
UGACCUGGGACUCGGACAGCUG [hsa-miR-3661] | 31.7 | -25.2 | 35.2
AACUCACGAAGUAUACCGAAGU [hsa-miR-4798-3p] | 48.2 | 11.4 | -1.81
CCUGGGGACAGGGGAUUGGGGCAG [hsa-miR-8089] | 93.2 | 40.1 | -19.7
AAGGGGCUGGGGGAGCACA [hsa-miR-6085] | 22 | -17.6 | 33.3
